Reference: patent publication US20130097729A1

Molecular target: whole pea aphid BBMV proteins
Test: pull-down with whole pea aphid BBMV, anti-GFP western blot, ImageJ band intensities

fold increase in BBMV binding efficiency against GBP3.1-EGFP: 5 fold
Substance: GBP3.1(R8A)EGFP (peptide)
